Like-named read-outs stand apart in the source and are kept apart here.
What was measured:
[1] = assay type: biochemical; conditions: read-out: Km(ATP); 100 μM SPS
[2] = assay type: biochemical; conditions: read-out: Km(SPS); Src peptide substrate

B1: Lyn^SH2eng: Lyn Q509E/Q510E/Q511I three-domain construct with enhanced SH2 engagement (protein)
chain: QGDIVVALYPYDGIHPDDLSFKKGEKMKVLEEHGEWWKAKSLLTKKEGFIPSNYVAKLNTLETEEWFFKDITRKDAERQLLAPGNSAGAFLIRESETLKGSFSLSVRDFDPVHGDVIKHYKIRSLDNGGYYISPRITFPCISDMIKHYQKQADGLCRRLEKACISPKPQKPWDKDAWEIPRESIKLVKRLGAGQFGEVWMGYYNNSTKVAVKTLKPGTMSVQAFLEEANLMKTLQHDKLVRLYAVVTREEPIYIITEYMAKGSLLDFLKSDEGGKVLLPKLIDFSAQIAEGMAYIERKNYIHRDLRAANVLVSESLMCKIADFGLARVIEDNEYTAREGAKFPIKWTAPEAINFGCFTIKSDVWSFGILLYEIVTYGKIPYPGRTNADVMTALSQGYRMPRVENCPDELYDIMKMCWKEKAEERPTFDYLQSVLDDFYTATEGQYEEIP
modifications: left off: His tag, N-terminal, kept
Km [1]: 54 ± 5 µM
Km [2]: 60 ± 10 µM

Source: publication PMC4230323 (Biochemistry, 2014)
